Measured values published in US20160031999A1 (CSL, published 2016).

T1: human IL-11Rα on transfected cells (human, UniProt Q14626 23-422)
T1 sequence: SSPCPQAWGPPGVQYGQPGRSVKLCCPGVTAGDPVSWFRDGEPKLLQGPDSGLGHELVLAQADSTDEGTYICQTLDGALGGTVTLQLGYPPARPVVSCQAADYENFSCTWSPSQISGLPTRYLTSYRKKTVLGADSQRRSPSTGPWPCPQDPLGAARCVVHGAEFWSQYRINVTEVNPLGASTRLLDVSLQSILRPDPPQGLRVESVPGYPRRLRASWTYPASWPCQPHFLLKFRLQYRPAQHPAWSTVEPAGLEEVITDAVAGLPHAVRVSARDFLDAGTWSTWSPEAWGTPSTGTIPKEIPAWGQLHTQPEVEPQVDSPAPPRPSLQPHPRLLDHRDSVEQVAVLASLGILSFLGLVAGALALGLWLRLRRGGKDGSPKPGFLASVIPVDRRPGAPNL

T2: human IL-11Rα (form used in the assay not stated) (human, UniProt Q14626 23-363, limits assumed)
T2 construct: also called hIL-11R; hIL-11Rα
T2 sequence: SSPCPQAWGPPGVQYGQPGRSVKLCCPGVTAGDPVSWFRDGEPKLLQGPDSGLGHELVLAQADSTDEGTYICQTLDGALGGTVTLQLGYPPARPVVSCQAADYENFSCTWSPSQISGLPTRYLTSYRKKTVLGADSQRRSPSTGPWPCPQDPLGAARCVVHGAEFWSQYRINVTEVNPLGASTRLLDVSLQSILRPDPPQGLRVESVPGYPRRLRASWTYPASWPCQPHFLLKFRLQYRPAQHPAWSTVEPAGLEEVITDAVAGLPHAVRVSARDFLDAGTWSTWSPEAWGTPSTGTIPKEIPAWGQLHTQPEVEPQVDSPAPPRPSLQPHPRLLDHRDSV


Assays:
[1] = biological target: T1, human IL-11Rα on transfected cells; assay: cell-based or functional assay
[2] = biological target: T2, human IL-11Rα (form used in the assay …); assay: Biacore, pH 8.5, 37°C; some heterogeneity observed, an accurate KD difficult to determine
[3] = biological target: T2, human IL-11Rα (form used in the assay …); assay: Biacore, pH 8.5, 37°C

Row | Binder | Fold increase in potency relative to 8E2 [1] [fold] | IC50 [1] [µg/mL] | Kd [2] [nM] | Kd [3] [nM]
1 | hu8E2-TS-213 (antibody, V domains shown) VH: EVQLLESGGGLVQPGGSLRLSCAASGFTFSWYSMTWVRQAPGKGLEWVSSIVPSGGHTQYADSVKGRFTISRDNSKNTLYLQMNSLRAEDTAVYYCAKGPGWGQFAVWGRGTLVTVSS VL: not shown | 1.2 | 0.51 | > 9 | 
2 | hu8E2-TS-313 (antibody, V domains shown) VH: EVQLLESGGGLVQPGGSLRLSCAASGFTFSWYSMTWVRQAPGKGLEWVSSIVPSGGHTQYADSVKGRFTISRDNSKNTLYLQMNSLRAEDTAVYYCAKGPGWGSFDLWGRGTLVTVSS VL: DIQMTQSPSSLSASVGDRVTITCQASQDVSGYVEWYQQKPGKAPKLLIYDASNLQTGVPSRFSGSGSGTDFTFTISSLQPEDIATYYCQQYDNLSPTFGPGTKVDIK | 0.7 | 0.51 |  | 5.56
3 | hu8E2-TS-310 (antibody, V domains shown) VH: EVQLLESGGGLVQPGGSLRLSCAASGFTFSWYSMTWVRQAPGKGLEWVSSIVPSGGHTQYADSVKGRFTISRDNSKNTLYLQMNSLRAEDTAVYYCAKGPGWGSFDLWGRGTLVTVSS VL: DIQMTQSPSSLSASVGDRVTITCQASQDVAMYIEWYQQKPGKAPKLLIYDASNLQTGVPSRFSGSGSGTDFTFTISSLQPEDIATYYCQQYDNLSPTFGPGTKVDIK | 0.4 | 0.84 |  | 2.09
4 | hu8E2-TS-322 (antibody, V domains shown) VH: EVQLLESGGGLVQPGGSLRLSCAASGFTFSWYSMTWVRQAPGKGLEWVSSIVPSGGHTQYADSVKGRFTISRDNSKNTLYLQMNSLRAEDTAVYYCAKGPGWGSFDLWGRGTLVTVSS VL: DIQMTQSPSSLSASVGDRVTITCQASQDVHHYMEWYQQKPGKAPKLLIYDASNLQTGVPSRFSGSGSGTDFTFTISSLQPEDIATYYCQQYDNLSPTFGPGTKVDIK | 1.1 | 0.33 |  | 6.01

Further binders by falling Kd [3], results first:

Row | Fold increase in potency relative to 8E2 [1] [fold] | IC50 [1] [µg/mL] | Kd [2] [nM] | Kd [3] [nM] | Binder
5 | 1.2 | 0.29 |  | 1.76 | hu8E2-TS-312 (antibody, V domains shown) VH: EVQLLESGGGLVQPGGSLRLSCAASGFTFSWYSMTWVRQAPGKGLEWVSSIVPSGGHTQYADSVKGRFTISRDNSKNTLYLQMNSLRAEDTAVYYCAKGPGWGSFDLWGRGTLVTVSS VL: DIQMTQSPSSLSASVGDRVTITCQASQDIGQYVEWYQQKPGKAPKLLIYDASNLQTGVPSRFSGSGSGTDFTFTISSLQPEDIATYYCQQYDNLSPTFGPGTKVDIK
6 | 0.6 | 0.6 |  | 1.69 | hu8E2-TS-311 (antibody, V domains shown) VH: EVQLLESGGGLVQPGGSLRLSCAASGFTFSWYSMTWVRQAPGKGLEWVSSIVPSGGHTQYADSVKGRFTISRDNSKNTLYLQMNSLRAEDTAVYYCAKGPGWGSFDLWGRGTLVTVSS VL: DIQMTQSPSSLSASVGDRVTITCQASQDVSQYIEWYQQKPGKAPKLLIYDASNLQTGVPSRFSGSGSGTDFTFTISSLQPEDIATYYCQQYDNLSPTFGPGTKVDIK
7 | 1.9 | 0.25 |  | 1.32 | hu8E2-TS-307 (antibody, V domains shown) VH: EVQLLESGGGLVQPGGSLRLSCAASGFTFSWYSMTWVRQAPGKGLEWVSSIVPSGGHTQYADSVKGRFTISRDNSKNTLYLQMNSLRAEDTAVYYCAKGPGWGSFDLWGRGTLVTVSS VL: DIQMTQSPSSLSASVGDRVTITCQASQDVSMYVEWYQQKPGKAPKLLIYDASNLQTGVPSRFSGSGSGTDFTFTISSLQPEDIATYYCQQYDNLSPTFGPGTKVDIK
